Drawing on publication PMC7102498, this text covers binding for 1 sequence.

The target in the data set is T1, QseB (Escherichia coli ECDCM2 (clinical bovine mastitis isolate)) (UniProt P52076).
T1 sequence: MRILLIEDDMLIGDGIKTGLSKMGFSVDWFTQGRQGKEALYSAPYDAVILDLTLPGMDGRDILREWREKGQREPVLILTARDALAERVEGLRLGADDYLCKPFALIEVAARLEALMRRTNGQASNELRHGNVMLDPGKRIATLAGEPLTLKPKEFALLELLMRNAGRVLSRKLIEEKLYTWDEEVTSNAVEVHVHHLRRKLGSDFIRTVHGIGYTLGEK
Briefly: EMSA. In general terms: In EMSA bound probe runs differently from free probe, usually more slowly.

As for “ATGTTCGTGAATTTACAGGCGTTAGATTTACATACATTTGTGAATGTATGTACCATAGCACGACGATAATATAAACGCAGCAATGGGTTTATTAACTTTTGACCATTGACCAATTTGAAATCGGACACTCGAGGTTTACAT (double strand) [p-acrA promoter]”, the binding result is “no binding”.
